Results published in patent US20260248897.

Key:
[1] = target: RBD of SARS-CoV-2 (B lineage) (UniProt P0DTC2)
[2] = target: RBD of hCoV-229E (UniProt P15423)
[3] = target: RBD of SARS-CoV-2, on infectious virus (UniProt P0DTC2)

| Substance | disulfide bond cleavage activity (remaining rate of native RBD; maleimide-PEG 2k, SDS-PAGE) [1] | disulfide bond cleavage activity (remaining rate of native RBD; maleimide-PEG 2k, SDS-PAGE) [2] | antiviral activity (number of viral copies of SARS-CoV-2 in supernatant of infected airway organoids) [3] |
| --- | --- | --- | --- |
| gene recombinant of human ERp46 (thioredoxin domain containing 5) | The order of the disulfide bond cleavage activity of the RBD from highest to lowest was PDI, ERp46, P5, ERp72, and ERp57. | The order of the disulfide bond cleavage activity of the RBD of hCoV-229E from highest to lowest was PDI, ERp46, P5, Erp57, and ERp72. | Both PDI and ERp46 inhibited the SARS-CoV-2 infection in a concentration-dependent manner. |
| gene recombinant of human PDI (protein disulfide isomerase) | The order of the disulfide bond cleavage activity of the RBD from highest to lowest was PDI, ERp46, P5, ERp72, and ERp57. Among these, the disulfide bond cleavage activity of PDI was significantly high. | The order of the disulfide bond cleavage activity of the RBD of hCoV-229E from highest to lowest was PDI, ERp46, P5, Erp57, and ERp72. Among these, the disulfide bond cleavage activity of PDI was significantly high. | Both PDI and ERp46 inhibited the SARS-CoV-2 infection in a concentration-dependent manner. |
